Measurements reported in patent US20170247475A1 (Boehringer Ingelheim, published 2017).

B1: recombinant mouse VEGF164 (ligand, UniProt Q00731-2 27-190, looked up)
chain: APTTEGEQKSHEVIKFMDVYQRSYCRPIETLVDIFQEYPDEIEYIFKPSCVPLMRCAGCCNDEALECVPTSESNITMQIMRIKPHQSQHIGEMSFLQHSRCECRPKKDRTKPENHCEPCSERRKHLFVQDPQTCKCSCKNTDSRCKARQLELNERTCRCDKPRR
notes: biotinylated in the mVEGFR2 AlphaScreen; also called rmVEGF164; mVEGF164

Key:
[1] = target: T1, mouse VEGFR2-huFc (mouse, UniProt P35918 20-762, limits assumed); assay: mVEGF164/mVEGFR2-hFc competition AlphaScreen, unlabelled mVEGF164 as competitor
T1 construct: also called mVEGFR2-huFc; mVEGFR2-hFc

[2] = target: T2, recombinant human VEGF121 (human, UniProt P15692-9 27-147); assay: binding ELISA, coated rhVEGF121
T2 construct: also called rhVEGF121; hVEGF121
T2 sequence (looked up): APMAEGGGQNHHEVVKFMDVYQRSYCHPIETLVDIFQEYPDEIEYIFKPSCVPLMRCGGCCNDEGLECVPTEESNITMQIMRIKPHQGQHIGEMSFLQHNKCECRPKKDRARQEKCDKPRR
Procedure: Binding to recombinant human VEGF121 is assessed via a solid phase binding ELISA. Briefly, recombinant human VEGF121 (R&D Systems, Minneapolis, Minn., USA) is coated overnight at 4° C. at 1 μg/mL in a 96-well MaxiSorp plate (Nunc, Wiesbaden, Germany). Wells are blocked with a casein solution (1% in PBS).

[3] = target: T3, human VEGF-D (human, UniProt O43915 93-201); assay: binding ELISA on coated VEGF D
T3 construct: also called hVEGF-D
T3 sequence (looked up): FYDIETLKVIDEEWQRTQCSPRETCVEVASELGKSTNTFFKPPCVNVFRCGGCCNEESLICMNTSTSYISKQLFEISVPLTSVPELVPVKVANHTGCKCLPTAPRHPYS
Procedure: Binding to VEGFB, VEGFC, VEGFD and PIGF is assessed via a solid phase binding ELISA. In brief, VEGFB, VEGFC, VEGFD and PIGF (R&D Systems, Minneapolis, Minn., USA) are coated overnight at 4° C. at 1 μg/mL in a 96-well MaxiSorp plate (Nunc, Wiesbaden, Germany). Wells are blocked with a casein solution (1% in PBS). […] As positive controls serial dilutions of the appropriate receptors are taken along and detected with horseradish peroxidase (HRP)-conjugated goat anti-human IgG, Fc specific antibody (Jackson Immuno Research Laboratories Inc., West Grove, Pa., USA) and a subsequent enzymatic reaction in the presence of the substrate TMB (3,3′,5,5′-tetramentylbenzidine) (Pierce, Rockford, Ill., USA).

[4] = target: T4, recombinant human VEGF165 (human, UniProt P15692-4 27-191); assay: SPR Biacore T100, Two State Reaction model; KD = kd1/ka1 * (kd2/(kd2 + ka2))
T4 construct: also called hVEGF165; rhVEGF165

[5] = target: T5, human VEGF-C (human, UniProt P49767 103-227); assay: binding ELISA on coated VEGFC
T5 construct: also called hVEGF-C
T5 sequence (looked up): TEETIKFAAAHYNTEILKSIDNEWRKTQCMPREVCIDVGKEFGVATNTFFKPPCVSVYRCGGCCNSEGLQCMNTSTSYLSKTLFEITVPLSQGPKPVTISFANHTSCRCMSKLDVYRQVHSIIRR

[6] = target: T4, recombinant human VEGF165; assay: VEGF/VEGFR2 competition AlphaScreen
Procedure: (§1) Finally, streptavidin donor beads (20 μg/ml) are added and after 1 hour of incubation in the dark, fluorescence is measured on the Envision microplate reader.

[7] = target: T4, recombinant human VEGF165; assay: VEGF165/hVEGFR1-Fc competition ELISA
[8] = target: T4, recombinant human VEGF165; assay: ka1; SPR Biacore T100, hVEGF165 on chip, Two State Reaction model
[9] = target: B1; assay: binding ELISA, coated rmVEGF164
Procedure: Cross-reactivity to mouse VEGF164 is determined using a binding ELISA. […] Wells are blocked with a casein solution (1% in PBS). […] A mouse VEGF164 reactive mAb is included as positive control.

[10] = target: VEGF; assay: cell-based or functional assay
[11] = target: T4, recombinant human VEGF165; assay: VEGF/VEGFR1 competition AlphaScreen
Procedure: as §1

[12] = target: VEGF; assay: cell-based or functional assay; remark: listed apart in the source
[13] = target: B1; assay: mVEGF164/mVEGFR2-hFc competition AlphaScreen
Procedure: Finally, streptavidin donor beads (20 μg/ml) are added and after 1 hour of incubation fluorescence is measured on the Envision microplate reader.

[14] = target: T6, human PIGF (human, UniProt P49763-2 21-149, limits assumed); assay: binding ELISA on coated PIGF
T6 construct: also called hPIGF; PLGF
T6 sequence (looked up): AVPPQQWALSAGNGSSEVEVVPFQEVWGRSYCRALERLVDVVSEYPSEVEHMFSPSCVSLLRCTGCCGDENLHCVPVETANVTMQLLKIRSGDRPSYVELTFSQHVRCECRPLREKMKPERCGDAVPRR

[15] = target: T4, recombinant human VEGF165; assay: binding ELISA, coated rhVEGF165
[16] = target: T4, recombinant human VEGF165; assay: hVEGF165/hVEGFR2-Fc competition ELISA
[17] = target: T4, recombinant human VEGF165; assay: kd1; SPR Biacore T100, hVEGF165 on chip, Two State Reaction model
[18] = target: T4, recombinant human VEGF165; assay: hVEGF165/hVEGFR2-Fc competition AlphaScreen
Procedure: as §1

[19] = target: T4, recombinant human VEGF165; assay: SPR Biacore T100, hVEGF165 on chip, Two State Reaction model
[20] = target: T4, recombinant human VEGF165; assay: VEGF165/hVEGFR1-Fc competition AlphaScreen
Procedure: as §1

[21] = target: T7, human VEGF-B (human, UniProt P49765-2 22-188, limits assumed); assay: binding ELISA on coated VEGFB
T7 construct: also called hVEGF-B
T7 sequence (looked up): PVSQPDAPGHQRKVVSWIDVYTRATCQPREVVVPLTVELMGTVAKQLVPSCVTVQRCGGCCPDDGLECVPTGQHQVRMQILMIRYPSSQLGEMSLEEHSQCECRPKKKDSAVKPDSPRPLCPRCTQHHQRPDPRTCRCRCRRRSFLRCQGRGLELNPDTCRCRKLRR

[22] = target: T8, human VEGFR1-Fc chimera (human, UniProt P17948 27-756); assay: ELISA, coated KLH conjugated VEGF165
T8 construct: bought (R&D Systems); also called hVEGFR1-Fc

[23] = target: T9, human VEGFR2-Fc chimera (human, UniProt P35968 20-764); assay: ELISA, coated VEGF109
T9 construct: bought (R&D Systems); also called hVEGFR2-Fc; VEGFR2-huFc
Procedure: (§2) Expression is induced by addition of 1 mM IPTG and allowed to continue for 4 hours at 37° C. Cells are harvested by centrifugation and lysed by sonication of the cell pellet. Inclusion bodies are isolated by centrifugation. […] The refolded protein is purified by ion exchange chromatography using a MonoQ5/50GL (Amersham BioSciences) column followed by gel filtration with a Superdex75 10/300 GL column (Amersheim BioSciences). […] To this end, 1 μg/mL of recombinant human VEGF109 is immobilized overnight at 4° C. in a 96-well MaxiSorp plate (Nunc, Wiesbaden, Germany). Wells are blocked with a casein solution (1%).

[24] = target: T8, human VEGFR1-Fc chimera; assay: ELISA, coated VEGF109
Procedure: as §2

T8 sequence (P17948 27-756, change not shown): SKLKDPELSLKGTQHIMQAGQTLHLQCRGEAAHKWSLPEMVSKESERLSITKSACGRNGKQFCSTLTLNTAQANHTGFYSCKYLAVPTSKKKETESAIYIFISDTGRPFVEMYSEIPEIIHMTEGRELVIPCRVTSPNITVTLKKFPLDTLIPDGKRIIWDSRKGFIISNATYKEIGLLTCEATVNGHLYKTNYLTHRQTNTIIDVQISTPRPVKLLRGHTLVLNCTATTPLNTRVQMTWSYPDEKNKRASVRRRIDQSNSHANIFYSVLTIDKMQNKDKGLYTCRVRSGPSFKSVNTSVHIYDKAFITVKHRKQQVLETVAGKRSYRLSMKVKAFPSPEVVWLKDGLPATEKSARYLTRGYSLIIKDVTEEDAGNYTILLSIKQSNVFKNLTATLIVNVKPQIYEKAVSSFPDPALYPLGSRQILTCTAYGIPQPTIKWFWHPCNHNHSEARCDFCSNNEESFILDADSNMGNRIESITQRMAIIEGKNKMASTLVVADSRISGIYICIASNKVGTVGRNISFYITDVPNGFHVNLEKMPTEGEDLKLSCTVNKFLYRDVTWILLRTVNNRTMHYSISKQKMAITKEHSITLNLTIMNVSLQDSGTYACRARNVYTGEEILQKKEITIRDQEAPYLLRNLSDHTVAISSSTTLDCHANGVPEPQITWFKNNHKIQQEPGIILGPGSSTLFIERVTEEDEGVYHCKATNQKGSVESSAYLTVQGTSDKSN
T1 sequence (P35918 20-762 limits assumed): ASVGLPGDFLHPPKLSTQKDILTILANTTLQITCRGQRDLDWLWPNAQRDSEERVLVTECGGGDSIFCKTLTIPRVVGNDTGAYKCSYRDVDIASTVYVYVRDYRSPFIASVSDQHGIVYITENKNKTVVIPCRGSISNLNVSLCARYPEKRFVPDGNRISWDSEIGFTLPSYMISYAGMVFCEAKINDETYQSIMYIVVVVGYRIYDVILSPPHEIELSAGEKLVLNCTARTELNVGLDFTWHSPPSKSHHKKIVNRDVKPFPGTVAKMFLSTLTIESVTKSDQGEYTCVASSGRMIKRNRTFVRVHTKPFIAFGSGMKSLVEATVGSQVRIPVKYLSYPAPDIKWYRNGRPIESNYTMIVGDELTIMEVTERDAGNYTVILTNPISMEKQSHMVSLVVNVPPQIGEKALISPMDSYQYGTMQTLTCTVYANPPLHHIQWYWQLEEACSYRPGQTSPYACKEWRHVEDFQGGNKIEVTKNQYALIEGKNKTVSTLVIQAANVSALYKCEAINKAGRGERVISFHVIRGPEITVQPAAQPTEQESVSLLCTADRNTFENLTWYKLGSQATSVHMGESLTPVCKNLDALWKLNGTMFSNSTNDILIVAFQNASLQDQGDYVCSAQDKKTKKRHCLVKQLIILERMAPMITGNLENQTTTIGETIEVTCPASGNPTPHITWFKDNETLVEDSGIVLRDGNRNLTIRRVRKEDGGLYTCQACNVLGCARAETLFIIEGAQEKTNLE
T9 sequence (P35968 20-764, change not shown): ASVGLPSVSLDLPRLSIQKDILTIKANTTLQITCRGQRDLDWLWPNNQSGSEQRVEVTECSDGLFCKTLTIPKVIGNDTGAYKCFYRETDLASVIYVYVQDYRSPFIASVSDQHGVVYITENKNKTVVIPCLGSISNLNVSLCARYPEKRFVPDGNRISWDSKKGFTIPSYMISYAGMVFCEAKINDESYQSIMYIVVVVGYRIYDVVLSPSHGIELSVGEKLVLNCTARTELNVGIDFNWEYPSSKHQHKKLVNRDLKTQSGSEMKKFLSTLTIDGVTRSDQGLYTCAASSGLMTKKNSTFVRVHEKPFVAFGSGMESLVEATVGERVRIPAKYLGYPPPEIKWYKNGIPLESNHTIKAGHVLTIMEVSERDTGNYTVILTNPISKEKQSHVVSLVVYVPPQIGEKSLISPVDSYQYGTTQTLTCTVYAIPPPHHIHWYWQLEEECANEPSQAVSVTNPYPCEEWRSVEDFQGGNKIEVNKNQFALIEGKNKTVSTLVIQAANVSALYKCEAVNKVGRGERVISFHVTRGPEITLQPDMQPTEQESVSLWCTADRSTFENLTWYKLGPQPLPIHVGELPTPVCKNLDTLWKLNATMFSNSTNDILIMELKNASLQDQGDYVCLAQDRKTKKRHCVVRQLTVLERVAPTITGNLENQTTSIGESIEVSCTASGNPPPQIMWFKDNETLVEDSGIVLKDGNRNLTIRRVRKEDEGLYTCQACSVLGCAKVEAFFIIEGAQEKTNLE

How did the IC50 [1] turn out when B1 was run?
Its IC50 is 0.05 nM.

B2: VEGFBII022 (VHH)
chain: EVQLVESGGGLVQTGDSLRLSCEVSGRTFSSYSMGWFRQAQGKEREFVVAISKGGYKYDSVSLEGRFTISKDNAKNTVYLQINSLKPEDTAVYYCASSRAYGSSRLRLADTYEYWGQGTQVTVSSGGGGSGGGSEVQLVESGGGLVQPGGSLRLSCVASGIRFMSMAWYRQAPGKHRELVARISSGGTTAYVDSVKGRFTISRDNSKNTVYLQMNSLKAEDTAVYYCNTFSSRPNPWGAGTQVTVSS
notes: biparatopic bivalent VHH in one chain; also called VEGFBII23B04-9GS-5B05
How did the EC50 [2] turn out when B2 was run?
Its EC50 is 0.54 nM.

Does B2 bind [3]?
Result: no binding (tested: 5e-7 M)

What about the Kd [4] of the same binder?
The Kd was 0.14 nM.

Does B2 bind [5]?
Result: no binding (tested: 5e-7 M)

And the IC50 [6]?
The IC50 was 0.007 nM.

And the “% inhibition” value [7]?
Its value is 89%.

What about the IC50 [7] of the same binder?
Its IC50 is 0.225 nM.

What about the kon [8] of the same binder?
The kon was 1.2e+06 M⁻¹ s⁻¹.

What about the EC50 [9] of the same binder?
The EC50 was 0.464 nM.

What about the “% inhibition, VEGF HUVEC proliferation assay” value [10] of the same binder?
Its value is 100%.

And the “IC50 (nM), VEGF HUVEC proliferation assay” value [10]?
The value was 0.34 nM.

What about the “% inhibition” value [11] of the same binder?
The value was 100%.

And the IC50 [11]?
The IC50 was 0.008 nM.

What about the “% inhibition, VEGF HUVEC Erk phosphorylation assay” value [12] of the same binder?
Its value is 94%.

What about the “IC50 (nM), VEGF HUVEC Erk phosphorylation assay” value [12] of the same binder?
Its value is 0.18 nM.

What about the IC50 [13] of the same binder?
Its IC50 is 108 nM.

Does B2 bind [14]?
Result: no binding (tested: 5e-7 M)

What about the EC50 [15] of the same binder?
Its EC50 is 0.224 nM.

And the “% inhibition” value [16]?
Its value is 100%.

What about the IC50 [16] of the same binder?
Its IC50 is 0.164 nM.

And the koff [17]?
The koff was 0.0091 s⁻¹.

What about the “% inhibition” value [18] of the same binder?
The value was 100%.

What about the IC50 [18] of the same binder?
The IC50 was 0.007 nM.

What about the ka2 [19] of the same binder?
The ka2 was 0.014 s⁻¹.

What about the kd2 [19] of the same binder?
Its kd2 is 0.00026 s⁻¹.

And the “% inhibition” value [20]?
Its value is 98%.

What about the IC50 [20] of the same binder?
The IC50 was 0.009 nM.

Does B2 bind [21]?
Result: no binding (tested: 5e-7 M)

B3: KLH conjugated VEGF165 (ligand, human, UniProt P15692-4 27-191, looked up)
chain: APMAEGGGQNHHEVVKFMDVYQRSYCHPIETLVDIFQEYPDEIEYIFKPSCVPLMRCGGCCNDEGLECVPTEESNITMQIMRIKPHQGQHIGEMSFLQHNKCECRPKKDRARQENPCGPCSERRKHLFVQDPQTCKCSCKNTDSRCKARQLELNERTCRCDKPRR
modifications: conjugated to mariculture keyhole limpet hemocyanin (mcKLH) with EDC
notes: also called VEGF165-KLH
Does B3 bind [22]?
Result: binds

B4: recombinant human VEGF109 (ligand, UniProt P15692 207-315, looked up)
chain: APMAEGGGQNHHEVVKFMDVYQRSYCHPIETLVDIFQEYPDEIEYIFKPSCVPLMRCGGCCNDEGLECVPTEESNITMQIMRIKPHQGQHIGEMSFLQHNKCECRPKKD
notes: also called rhVEGF109
Which results are given for B4?
binding result [23]: binds; binding result [24]: binds
